Data: US20210238276A1 (INTEGRAL MOLECULAR, published 2021)

T1: hsGLUT4 F314A (human, UniProt P14672 1-509)
T1 sequence: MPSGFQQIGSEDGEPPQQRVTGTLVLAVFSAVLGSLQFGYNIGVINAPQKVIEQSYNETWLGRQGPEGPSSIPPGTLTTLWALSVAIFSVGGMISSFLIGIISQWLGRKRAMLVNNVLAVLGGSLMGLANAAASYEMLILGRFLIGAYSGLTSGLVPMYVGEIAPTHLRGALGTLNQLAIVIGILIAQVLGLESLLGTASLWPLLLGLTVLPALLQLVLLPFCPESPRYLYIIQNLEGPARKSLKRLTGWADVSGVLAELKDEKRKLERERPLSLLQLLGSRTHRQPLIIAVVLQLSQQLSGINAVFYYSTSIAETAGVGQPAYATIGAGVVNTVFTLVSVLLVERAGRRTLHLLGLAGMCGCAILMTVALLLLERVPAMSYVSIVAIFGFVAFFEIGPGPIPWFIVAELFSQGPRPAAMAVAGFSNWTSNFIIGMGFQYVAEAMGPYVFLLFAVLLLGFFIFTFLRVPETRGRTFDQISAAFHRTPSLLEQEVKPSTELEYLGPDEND

T2: hsGLUT4 F307A (human, UniProt P14672 1-509)
T2 sequence: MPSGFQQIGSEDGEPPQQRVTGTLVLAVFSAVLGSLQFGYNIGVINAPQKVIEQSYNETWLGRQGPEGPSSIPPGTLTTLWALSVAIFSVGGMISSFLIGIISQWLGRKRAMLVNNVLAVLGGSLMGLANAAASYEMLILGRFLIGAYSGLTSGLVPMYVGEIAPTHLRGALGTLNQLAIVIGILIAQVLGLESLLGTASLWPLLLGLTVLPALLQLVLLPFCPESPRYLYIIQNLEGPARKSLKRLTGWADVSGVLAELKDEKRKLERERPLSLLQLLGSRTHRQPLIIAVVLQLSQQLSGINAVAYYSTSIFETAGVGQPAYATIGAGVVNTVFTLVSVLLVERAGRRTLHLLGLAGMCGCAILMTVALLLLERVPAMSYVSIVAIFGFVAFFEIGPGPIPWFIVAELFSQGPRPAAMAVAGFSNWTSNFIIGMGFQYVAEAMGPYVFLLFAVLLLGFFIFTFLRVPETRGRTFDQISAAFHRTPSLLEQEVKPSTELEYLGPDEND

T3: hsGLUT4 M112A (human, UniProt P14672 1-509)
T3 sequence: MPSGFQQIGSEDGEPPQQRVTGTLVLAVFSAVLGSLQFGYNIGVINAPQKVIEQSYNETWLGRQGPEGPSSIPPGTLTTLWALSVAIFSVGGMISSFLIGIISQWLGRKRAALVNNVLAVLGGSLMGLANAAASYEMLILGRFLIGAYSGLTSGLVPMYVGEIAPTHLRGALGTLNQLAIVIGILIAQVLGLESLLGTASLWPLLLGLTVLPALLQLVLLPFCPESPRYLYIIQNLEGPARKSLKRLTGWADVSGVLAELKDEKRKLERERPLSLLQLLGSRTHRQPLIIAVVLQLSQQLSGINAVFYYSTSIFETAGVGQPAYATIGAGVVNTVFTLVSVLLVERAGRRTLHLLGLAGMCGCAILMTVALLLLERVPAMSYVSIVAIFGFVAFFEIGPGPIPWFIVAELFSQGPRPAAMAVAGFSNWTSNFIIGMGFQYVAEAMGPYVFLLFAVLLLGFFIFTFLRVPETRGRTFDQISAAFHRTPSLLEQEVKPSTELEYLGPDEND

T4: hsGLUT4 L61A (human, UniProt P14672 1-509)
T4 sequence: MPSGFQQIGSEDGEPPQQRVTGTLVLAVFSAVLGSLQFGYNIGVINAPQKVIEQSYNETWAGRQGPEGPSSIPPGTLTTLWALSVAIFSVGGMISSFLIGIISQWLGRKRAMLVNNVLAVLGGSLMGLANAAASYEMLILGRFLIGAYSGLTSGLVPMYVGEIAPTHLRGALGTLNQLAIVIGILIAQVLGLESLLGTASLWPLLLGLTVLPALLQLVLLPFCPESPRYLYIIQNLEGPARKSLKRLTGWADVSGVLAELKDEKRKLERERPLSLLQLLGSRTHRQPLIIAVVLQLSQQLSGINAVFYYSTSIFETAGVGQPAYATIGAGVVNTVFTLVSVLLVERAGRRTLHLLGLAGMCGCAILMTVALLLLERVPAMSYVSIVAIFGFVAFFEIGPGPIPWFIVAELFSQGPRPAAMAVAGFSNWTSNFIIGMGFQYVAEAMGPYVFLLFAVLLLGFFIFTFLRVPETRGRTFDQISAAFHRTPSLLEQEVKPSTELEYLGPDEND


Tests used:
Assay in all cases: flow cytometry, alanine-scan library in HEK-293T
[1] = molecular target: T1, hsGLUT4 F314A
Procedure, shortened: (§1)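 HEK-293T cells expressing individual GLUT4 alanine mutants were stained 48 h post-transfection with anti-GLUT4 scFv MAbs (2 μg/ml), then biotinylated secondary and streptavidin-PerCP, and read by high-throughput flow cytometry. Where used, cytochalasin B (10 uM final) was given for 30 min before and during primary antibody staining.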

[2] = molecular target: T2, hsGLUT4 F307A
Procedure, shortened: as §1

[3] = molecular target: T3, hsGLUT4 M112A
Procedure, shortened: as §1

[4] = molecular target: T4, hsGLUT4 L61A
Procedure, shortened: as §1

| Molecule | % of binding to wild type GLUT4 [1] [%] | % of binding to wild type GLUT4 [2] [%] | % of binding to wild type GLUT4 [3] [%] | % of binding to wild type GLUT4 [4] [%] |
| --- | --- | --- | --- | --- |
| 1F8 (antibody) | 91 | 84 | 120 | 90 |
| AB101 (scFv, Chicken-derived clone used as a control; the four lead clones were tested as scFv-human IgG1 Fc; also called MAb AB101) scFv: ALTQPSSVSANPGETVKITCSGSSNSYGWYQQKSPGSAPVTVIYYNDKRPSDIPSRFSGSKSDSTHTLTITGVRAEDEAVYFCGSYDSTYVGIFGAGTTLTVLGQSSRSSGGGGSSGGGGSAVTLDESGGGLQTPGGTLSLVCKASGFTFSSNAMGWVRQAPGKGLEWVAGISSDGRYTKYGSAVKGRATISRDNGQSTVRLQLNNLRAEDTGTYFCAKAFGNNYRRIYAGQIDAWGHGTEVIVSS | 91 | 82 | 103 | 115 |
| AB108 (Fc fusion, Bivalent scFv-Fc; also called MAb AB108; not shown: Fc fragment of human IgG1, cloned in frame with the scFv) scFv: ALTQPSSVSANLGGTVKITCSGSSGSYGWYQQKAPGSAPVTLIYRNDKRPSDIPSRFSGSESGSTGTLTITGVQAEDEAVYFCGGYDSSAGYAAFGAGTTLTVLGQSSRSSGGGGSSGGGGSAVTLDESGGGLQTPGGALSLVCKASGFTFSSHGMGWVRQAPGKGLEWVGSISTGRYTFYAPAVKGRATISRDNGQSTLRLQLNNLRAEDTGTYYCTKCAGLNGCGGGEIDAWGHGTEVIVSS | 92 | 74 | 57 | 13 |
| AB111 (Fc fusion, Bivalent scFv-Fc; also called MAb AB111; not shown: Fc fragment of human IgG1, cloned in frame with the scFv) scFv: ALTQPSSVSANPGETVKITCSGSGSWYGWFQQKSPGSAPVTVIYSNDKRPSDIPSRFSGSKSGSTSTLTITGVQVEDEAVYYCGNWDIFGAGTTLTVLGQSSRSSGGGGSSGGGGSAVTLDESGGGLQTPGGALSLVCKASGFTFSSHGMGWVRQAPGKGLEWVASISTGRYTFYAPAVKGRATISRDNGQSTVRLQLNNLRAEDTATYYCTKCAGLNGCGGGEIDAWGHGTEVIVSS | 166 | 108 | 79 | 80 |
